Test results from patent US20240352097A1 (NATIONAL SUN YAT SEN UNIVERSITY, published 2024).

B1: K5-IgG1 (antibody, V domains shown)
VH: EVQLLESGAEVKKPGSSVKVSCQASGDTFSNSDINWVRQAPGQGLEWMGGIIPAYDTTNYARTFQGRVAITADKSTSTVYMELSRLRSEDTAVYYCATDQRDYFGLGNHFNAQHFWGQGTLVTVSS
VL: AIRMTQTPLSLSASVGDRVTITCRASQSISNYLNWYQQRPGKAPNLLIYTASNLHSGVPSRFSGSGSGTDFTLTISSLQPEDFATYYCQQSYSGGYTFGQGPSWEIK
B2: K8b-IgG1 (antibody, V domains shown)
VH: QVQLVQPGAEVVKPGASVKLSCKTSGYTFTSNWMHWVKQAPGQGLEWIGEIDPSDSYTNYNQNFQGKAKLTVDKSTSTAYMEVSSLRSDDTAVYYCARGSNPYYYAMDYWGQGTSVTVSS
VL: EIVMMQSPLTLSLSPGERATLSCRASQSVSSNYLAWYQQRPGQAPRLLIYGVSSRATGVPVRFSGSGSGTDFTLTISRLEPEDFAVYYCQHYGGSLSWTFGQGTKVEIK
B3: K8b-F(ab) (Fab, V domains shown)
VH: QVQLVQPGAEVVKPGASVKLSCKTSGYTFTSNWMHWVKQAPGQGLEWIGEIDPSDSYTNYNQNFQGKAKLTVDKSTSTAYMEVSSLRSDDTAVYYCARGSNPYYYAMDYWGQGTSVTVSS
VL: EIVMMQSPLTLSLSPGERATLSCRASQSVSSNYLAWYQQRPGQAPRLLIYGVSSRATGVPVRFSGSGSGTDFTLTISRLEPEDFAVYYCQHYGGSLSWTFGQGTKVEIKR

What was measured:
Assay in all cases: cell-based or functional assay
[1] = molecular target: DENV-4 envelope (E) protein (Dengue virus serotype 4, UniProt Q58HT7 280-679)
[2] = molecular target: T1, DENV-1 envelope (E) protein (Dengue virus serotype 1, UniProt P27909 281-680)
T1 chain: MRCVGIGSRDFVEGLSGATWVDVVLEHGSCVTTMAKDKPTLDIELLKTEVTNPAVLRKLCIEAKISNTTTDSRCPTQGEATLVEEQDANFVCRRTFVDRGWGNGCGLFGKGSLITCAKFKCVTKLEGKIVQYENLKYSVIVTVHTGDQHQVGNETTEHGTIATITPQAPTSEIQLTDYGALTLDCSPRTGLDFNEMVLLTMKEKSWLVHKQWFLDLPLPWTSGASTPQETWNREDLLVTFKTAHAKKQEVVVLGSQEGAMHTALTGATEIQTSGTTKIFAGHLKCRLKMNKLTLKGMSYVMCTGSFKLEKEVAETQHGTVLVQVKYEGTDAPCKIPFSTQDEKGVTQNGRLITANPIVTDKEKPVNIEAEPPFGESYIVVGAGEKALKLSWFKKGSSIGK

[3] = molecular target: DENV-2 envelope (E) protein (Dengue virus serotype 2, UniProt P29990 281-679)
[4] = molecular target: T2, DENV-3 envelope (E) protein (Dengue virus serotype 3, UniProt Q5UB51 281-678)
T2 chain: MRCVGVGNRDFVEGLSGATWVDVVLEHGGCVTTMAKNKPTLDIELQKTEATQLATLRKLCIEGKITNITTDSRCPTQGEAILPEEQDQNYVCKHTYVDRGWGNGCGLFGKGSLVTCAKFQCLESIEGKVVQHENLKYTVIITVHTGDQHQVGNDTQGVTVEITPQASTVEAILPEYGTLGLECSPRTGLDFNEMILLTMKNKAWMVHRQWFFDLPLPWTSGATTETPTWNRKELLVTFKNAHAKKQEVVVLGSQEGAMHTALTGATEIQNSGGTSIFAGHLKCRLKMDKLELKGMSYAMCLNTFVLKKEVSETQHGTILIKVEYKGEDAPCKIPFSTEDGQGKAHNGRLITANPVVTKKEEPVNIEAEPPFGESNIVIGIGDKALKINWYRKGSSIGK

[5] = molecular target: T3, JEV envelope (E) protein (Japanese encephalitis virus, UniProt P0DOH8 295-699)
T3 chain: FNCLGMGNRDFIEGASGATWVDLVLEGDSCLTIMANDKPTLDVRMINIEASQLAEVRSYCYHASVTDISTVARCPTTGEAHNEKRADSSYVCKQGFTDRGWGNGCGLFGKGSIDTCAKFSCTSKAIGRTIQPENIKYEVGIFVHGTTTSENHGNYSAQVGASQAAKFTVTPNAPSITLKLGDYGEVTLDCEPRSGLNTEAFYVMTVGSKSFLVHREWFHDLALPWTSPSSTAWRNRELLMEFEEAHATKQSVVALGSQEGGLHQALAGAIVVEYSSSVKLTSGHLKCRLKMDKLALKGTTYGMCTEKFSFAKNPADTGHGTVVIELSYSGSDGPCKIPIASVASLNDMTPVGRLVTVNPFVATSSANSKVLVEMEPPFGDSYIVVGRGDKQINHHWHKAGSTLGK

Row | Binder | neutralization (FRµNT50) [1] [µg/mL] | neutralization (FRµNT50) [2] [µg/mL] | neutralization (FRµNT50) [3] | neutralization (FRµNT50) [4] [µg/mL] | neutralization (FRµNT50) [5] [µg/mL]
1 | B1 | 1.51 | 0.771 | 0.215 µg/mL | 1.21 | 0.682
2 | B2 | – | – | 0.207 µg/mL | – | –
3 | B3 | – | – | 37 nM | – | –
